Earlier results as cited in publication PMC5548488.

Target: CAST/ELKS (UniProt Q8K3M6)
Sequence of UniProt Q8K3M6 (Q8K3M6 whole entry): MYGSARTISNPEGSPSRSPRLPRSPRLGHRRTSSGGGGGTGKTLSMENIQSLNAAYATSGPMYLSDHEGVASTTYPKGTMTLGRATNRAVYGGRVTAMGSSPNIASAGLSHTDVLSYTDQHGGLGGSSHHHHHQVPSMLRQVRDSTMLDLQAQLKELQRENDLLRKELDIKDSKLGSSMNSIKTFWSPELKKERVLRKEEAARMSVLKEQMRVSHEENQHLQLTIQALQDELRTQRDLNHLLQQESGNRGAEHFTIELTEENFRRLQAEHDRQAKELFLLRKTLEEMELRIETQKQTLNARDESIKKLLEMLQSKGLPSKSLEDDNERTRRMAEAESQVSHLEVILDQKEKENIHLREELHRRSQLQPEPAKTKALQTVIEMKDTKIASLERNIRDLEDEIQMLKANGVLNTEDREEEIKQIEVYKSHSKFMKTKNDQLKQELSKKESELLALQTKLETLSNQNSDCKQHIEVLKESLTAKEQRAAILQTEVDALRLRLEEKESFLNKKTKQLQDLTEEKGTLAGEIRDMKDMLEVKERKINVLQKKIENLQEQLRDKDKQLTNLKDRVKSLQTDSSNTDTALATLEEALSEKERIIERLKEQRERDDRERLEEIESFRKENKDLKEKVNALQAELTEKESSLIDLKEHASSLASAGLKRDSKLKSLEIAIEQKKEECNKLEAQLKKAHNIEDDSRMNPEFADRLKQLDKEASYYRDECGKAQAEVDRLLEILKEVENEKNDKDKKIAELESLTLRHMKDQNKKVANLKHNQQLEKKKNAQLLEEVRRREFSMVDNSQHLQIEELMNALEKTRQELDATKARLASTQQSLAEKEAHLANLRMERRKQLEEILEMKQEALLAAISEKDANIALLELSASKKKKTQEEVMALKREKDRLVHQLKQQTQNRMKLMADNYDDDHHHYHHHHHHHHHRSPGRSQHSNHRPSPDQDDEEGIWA

Kd: 200 nM
Substance: RIM PDZ (from UniProt Q86UR5)
